Drawing on article PMC4359947, this text covers Kd for one molecule.

Ends that are not written are not given here.

The target in the assay is MAGI-1 PDZ3 domain, Cy3-labelled, tag-free. Nature of the assay: FRET or BRET. In general terms: Bioluminescence resonance energy transfer reports proximity on the nanometre scale.

The Kd is the constant that tells how readily two partners part at equilibrium. Lower therefore signals tighter binding. GAIPVMIPAQSKDGSIV (also: Cy5 label (approximately 1 dye/peptide), site not given here) [CAR (CAR^Ex7) C-terminus, Cy5-labelled, tag-free] registered a Kd of 2 nM.
